The target in experiment [1] is fused FliS−FliC^C construct (FliC^C fused to the C terminus of FliS) (UniProt P06179). The experiment in a line: ITC. The note with it: read off a plot.
The target in experiment [2] is cytoplasmic domain of Salmonella enterica serovar Typhimurium FlhA (FlhA^C) (Salmonella enterica serovar Typhimurium ST313) (UniProt P40729). In words: ITC; FlhA^C and variants (0.1–0.2 mM) in the cell, FliT-FliD, FliS-FliC and variants (1.0–2.0 mM) in the syringe; 25 °C; 50 mM NaPi pH 6.8, 300 mM NaCl, 0.05% NaN3; one-site binding model. (ITC needs no label: the signal is the heat of the interaction.)

For experiment [3], the target named is cytoplasmic domain of Salmonella enterica serovar Typhimurium FlhA (FlhA^C) (UniProt P40729). In words: ITC. Conditions: read off a plot.

The text below walks through data of article PMC5932034.

Turning to “cytoplasmic domain of Salmonella enterica serovar Typhimurium FlhA (FlhA^C) (from UniProt P40729) L476A”, the ratio to parent in experiment [1] was found to be 8 fold.

One may read the Kd as the equilibrium constant for the complex coming apart. Read a high Kd as lower affinity. Take “fused FliS−FliC^C construct (FliC^C fused to the C terminus of FliS) (from UniProt P06179 454-495)”: in experiment [2], the equilibrium dissociation constant (Kd) stood at 10 µM.

“fused FliT−FliD^C construct (FliD^C fused to the N terminus of FliT) (from UniProt P16328)” yielded a Kd in experiment [2] of 20 µM. This Kd lies about 2-fold higher than the previous one.

In the case of “fused FliT−FliD^C construct (FliD^C fused to the N terminus of FliT) (from UniProt P16328) I93D”, the ratio to parent in experiment [3] stood at 3.3 fold.

Take “fused FliT−FliD^C construct (FliD^C fused to the N terminus of FliT) (from UniProt P16328) R98D”: in experiment [3], the ratio to parent came to 4.5 fold.
